In article PMC9073860:

Target: T1, C-reactive protein (CRP) (human, UniProt P02741 19-224)
T1 sequence: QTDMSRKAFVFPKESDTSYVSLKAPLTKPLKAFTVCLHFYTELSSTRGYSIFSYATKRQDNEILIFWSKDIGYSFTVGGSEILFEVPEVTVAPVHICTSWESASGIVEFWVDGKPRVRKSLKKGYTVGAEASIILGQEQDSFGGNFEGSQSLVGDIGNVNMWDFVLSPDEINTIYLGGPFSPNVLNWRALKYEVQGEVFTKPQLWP
Test: competition

Binder: CGAAGGGGATTCGAGGGGTGATTGCGTGCTCCATTTGGTG (ssDNA, 5'-biotin-(CH2)6) [CRP-aptamer (40-mer)]
- binding result: binds
